According to US20170320946A1:

How the values were obtained:
[1] = target: huTREM-1 expressed as amino-terminal FLAG peptide fusion protein on transfected COS-7 or 293 cells (human) (UniProt Q9NP99); experiment: FACS of 293 cells transiently transfected with TREM-1-FLAG, stained with anti-FLAG mAb M2; isotype-matched control set to the lower quadrant
[2] = target: huTREM-2 expressed as amino-terminal FLAG peptide fusion protein on transfected 293 cells (human) (UniProt Q9NZC2); experiment: FACS of 293 cells transiently transfected with TREM-2-FLAG, stained with anti-FLAG mAb M2; isotype-matched control set to the lower quadrant

- percentage of cells stained (upper right quadrant) [1]: 21.5%
- percentage of cells stained (upper right quadrant) [2]: 17.9%
Substance: ANTI-FLAG mAb M2 (antibody)
